The target of the assay is full length human PSGL-1 (SEQ ID NO: 3) expressed on heparan sulfate-mutant CHO cells (human) (UniProt Q14242). Briefly: blocking of VISTA-Fc binding to CHO-PSGL-1 cells (the blocked ligand is VISTA-Fc); cells pre-incubated with antibody and read by flow cytometry or HTRF.
full length human PSGL-1 (SEQ ID NO: 3) expressed on heparan sulfate-mutant CHO cells (human), sequence (Q14242 42-412 limits assumed, change not shown): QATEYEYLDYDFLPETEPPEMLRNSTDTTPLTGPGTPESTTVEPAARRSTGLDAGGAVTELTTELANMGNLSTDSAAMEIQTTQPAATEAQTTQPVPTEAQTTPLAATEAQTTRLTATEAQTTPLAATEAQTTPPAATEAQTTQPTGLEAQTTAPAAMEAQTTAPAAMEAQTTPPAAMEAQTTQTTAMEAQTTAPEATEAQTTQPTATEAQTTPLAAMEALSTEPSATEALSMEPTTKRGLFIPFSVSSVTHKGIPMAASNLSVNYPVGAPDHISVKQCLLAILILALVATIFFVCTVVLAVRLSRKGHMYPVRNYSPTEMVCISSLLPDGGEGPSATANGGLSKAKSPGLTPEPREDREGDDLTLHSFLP

Turning to “anti-PSGL-1 antibody KPL-1 (BD Biosciences or Biolegend)”, the IC50 (read off the curve) was 0.06 µg/mL.

The record behind these values is patent US20250129166A1.
